These results are taken from patent US20230143003A1 (JULIUS MAXIMILIANS UNIVERSIT T W RZBURG, published 2023).

Changes are numbered by the printed parent chain. Names may count otherwise. “And” between values parts separate entries of the source, which are not always exact repeats. Equal entries are not always repeated. Bounds are passed on as bounds.

In experiment [1] the target is T1, human ROR1 on cells (MDA-MB-231, ROR2-, ROR1+; also 786-O, ROR2+, ROR1+) (human, UniProt Q01973 30-937).
T1 construct: whole, on cells
Kind of experiment: Retrogenix cell microarray post-screen, ROR1 expressed on HEK 293 cells.

The target in experiment [2] is human CD3 on Jurkat-T Lucia cells (CD3+) (human, UniProt P07766 23-207; P04234 22-171; P09693 23-182). Kind of experiment: flow cytometry on Jurkat-T Lucia cells (CD3+); scFv-Fc followed by Alexa Fluor 647-conjugated donkey anti-human F(ab')2 pAbs. (Flow cytometry measures light scatter and fluorescence of single cells or particles in a stream.)
In experiment [3] the target is T2, hROR2-Fc (human ROR2 Fc fusion protein) (human, UniProt Q01974 34-403, limits assumed).
T2 construct: Given both as hROR2-Fc and as Fc-hROR2, so the order of the two parts is not certain; also called Fc-hROR2; not shown: human Fc part (captured by a mouse anti-human IgG CH2 / Fcγ mAb)
Kind of experiment: SPR; reference the existing anti-ROR2 antibody (XBR2-401).

Experiment [4] concerns the target T2, hROR2-Fc (human ROR2 Fc fusion protein). Kind of experiment: SPR, Biacore X100; hROR2-Fc captured, Fab injected; reference Fab 401. On the technique in general: SPR reads the build-up and loss of mass on a sensor chip optically.
The target is the same in experiment [5]. Description: SPR, Biacore X100; hROR2-Fc captured by anti-human Fc mAb on a CM5 chip, Fab injected.
Experiment [6] concerns the target T1, human ROR1 on cells (MDA-MB-231, ROR2-, …). Description: flow cytometry on MDA-MB-231 cells (ROR2-, ROR1+); Fab followed by PE-conjugated goat anti-human F(ab')2 pAbs.
The target of experiment [7] is T2, hROR2-Fc (human ROR2 Fc fusion protein). Kind of experiment: SPR (Biacore X100), Fc-hROR2 captured on CM5 chip via mouse anti-human Fcγ mAb, Fab as analyte, 1:1 binding model.
The target in experiment [8] is human ROR2 on cells (endogenous on T47D, 786-O and U266 cell lines); expressed on HEK 293 cells of the … (human, UniProt Q01974 34-943). Kind of experiment: cell-based or functional assay.
Experiment [9] addresses T1, human ROR1 on cells (MDA-MB-231, ROR2-, …). Kind of experiment: flow cytometry on MDA-MB-231 cells (ROR2-, ROR1+); biAb followed by Alexa Fluor 647-conjugated donkey anti-human F(ab')2 pAbs.

B1: hX3.12.6 scFv-Fc (IgG1-like format, two identical scFv fused to human IgG1 Fc) (Fc fusion)
chain: DPMLTQSPSSLSASVGDRVTITCQASQSISSDLSWYQQKPGKAPKLLIYQASTLASGVPSRFKGSGYGTEYTLTISSLQPEDFATYYCLGGYADASYRTAFGGGTKLEIKGGGGSGGGGSGGGGSEVQLVESGGGLVQPGGSLRLSCAASGFTFSSYGVTWVRQAPGKGLEWVSYINTAGNTYYASWAKSRFTISRDNAKNSLYLQMNSLRAEDTAVYYCARDDRWSLNIWGQGTLVTVSS
notes: The text says only: (Gly4Ser)3 linker between VL and VH, fused to the human IgG1 Fc fragment; also called mAb hX3.12.6 in scFv-Fc format; Humanized scFv-Fc xh3.12.6; not shown: human IgG1 Fc fragment
Turning to B1, the binding result in experiment [1] is “no binding (tested: 20 µg/mL)”; in [2], “no binding”.

B2: XBR2-401-X3.12 Fab (affinity matured chimeric rabbit/human Fab) (Fab, V domains shown)
VH: QSVKESEGGLFKPTDTLTLTCTVSGFSLSSYGVTWVRQAPGSGLEWIGYINTAGNTYYASWAKSRSTITRNTNENTVTLKMTSLTAADTATYFCARDDRWSLNIWGPGTLVTVSS
VL: DPMLTQTPSSTSTAVGDTVTIKCQASQSISSDLSWYQQKPGQRPKLLIYQASTLASGVPSRFKGSGYGTEYTLTISGVQREDAAIYYCLGGYADASYRTAFGGGTKLEIK
notes: Chimeric rabbit/human Fab
As usually defined, the Kd is the concentration at which binding is half-saturated. The term koff denotes the rate constant with which the complex falls apart. One may read the kon as the second-order rate constant of association. With B2, the “fold increase in binding affinity” value in experiment [3] was 10 fold. Moreover, the “fold improvement of affinity from 401” value in experiment [4] was no less than 5 fold. This molecule also returned a Kd in experiment [5] of 0.7 nM. Further, the binding result in [6] is listed as “no binding”. In experiment [7], this molecule came in with a Kd of 0.72 nM, a koff of 3.3e-05 s⁻¹ and a kon of 45000 M⁻¹ s⁻¹.

B3: 401×v9 ROR2×CD3 bispecific antibody (heterodimeric aglycosylated scFv-Fc) (bispecific antibody)
chain 1: DPMLTQTPSSTSTAVGDTVTIKCQASQSISSDLSWYQQKPGQRPKLLIYQASTLASGVPSRFKGSGYGTEYTLTISGVQREDAAIYYCLGGYADASYRTAFGGGTKLEIKGGGGSGGGGSGGGGSQSVKESEGGLFKPTDTLTLTCTVSGFSLSSYGVTWVRQAPGSGLEWIGYINTAGNTYYASWAKSRSTITRNTNENTVTLKMTSLTAADTATYFCARDWTSLNIWGPGTLVTVSSEPKSSDKTHTCPPCPAPELLGGPSVFLFPPKPKDTLMISRTPEVTCVVVDVSHEDPEVKFNWYVDGVEVHNAKTKPREEQYASTYRVVSVLTVLHQDWLNGKEYKCKVSNKALPAPIEKTISKAKGQPREPQVYTLPPCRDELTKNQVSLWCLVKGFYPSDIAVEWESNGQPENNYKTTPPVLDSDGSFFLYSKLTVDKSRWQQGNVFSCSVMHEALHNHYTQKSLSLSPGA
chain 2: EVQLVESGGGLVQPGGSLRLSCAASGYSFTGYTMNWVRQAPGKGLEWVALINPYKGVSTYNQKFKDRFTISVDKSKNTAYLQMNSLRAEDTAVYYCARSGYYGDSDWYFDVWGQGTLVTVSSGGGGSGGGGSGGGGSDIQMTQSPSSLSASVGDRVTITCRASQDIRNYLNWYQQKPGKAPKLLIYYTSRLESGVPSRFSGSGSGTDYTLTISSLQPEDFATYYCQQGNTLPWTFGQGTKVEIKEPKSSDKTHTCPPCPAPELLGGPSVFLFPPKPKDTLMISRTPEVTCVVVDVSHEDPEVKFNWYVDGVEVHNAKTKPREEQYASTYRVVSVLTVLHQDWLNGKEYKCKVSNKALPAPIEKTISKAKGQPREPQVCTLPPSRDELTKNQVSLSCAVKGFYPSDIAVEWESNGQPENNYKTTPPVLDSDGSFFLVSKLTVDKSRWQQGNVFSCSVMHEALHNHYTQKSLSLSPGA
For the molecule B3, the “specific lysis of 786-O cells by expanded primary T cells (E:T 10:1, 16 h), EC50” value (“specific lysis of 786-O cells” below) in experiment [8] was 0.19 µg/mL and 1.9 nM. For the same molecule, the binding result in [9] was “no binding”.

B4: hX3.12.6×v9 ROR2×CD3 bispecific antibody (heterodimeric aglycosylated scFv-Fc) (bispecific antibody)
chain 1: DPMLTQSPSSLSASVGDRVTITCQASQSISSDLSWYQQKPGKAPKLLIYQASTLASGVPSRFKGSGYGTEYTLTISSLQPEDFATYYCLGGYADASYRTAFGGGTKLEIKGGGGSGGGGSGGGGSEVQLVESGGGLVQPGGSLRLSCAASGFTFSSYGVTWVRQAPGKGLEWVSYINTAGNTYYASWAKSRFTISRDNAKNSLYLQMNSLRAEDTAVYYCARDDRWSLNIWGQGTLVTVSSEPKSSDKTHTCPPCPAPELLGGPSVFLFPPKPKDTLMISRTPEVTCVVVDVSHEDPEVKFNWYVDGVEVHNAKTKPREEQYASTYRVVSVLTVLHQDWLNGKEYKCKVSNKALPAPIEKTISKAKGQPREPQVYTLPPCRDELTKNQVSLWCLVKGFYPSDIAVEWESNGQPENNYKTTPPVLDSDGSFFLYSKLTVDKSRWQQGNVFSCSVMHEALHNHYTQKSLSLSPGA
chain 2: B3 chain 2
notes: ROR2 scFv on the knob Fc, v9 anti-CD3 scFv on the hole Fc, both N297A; also called hX3.12.6×V9 bi-mAb
Consider B4, for which the “specific lysis of 786-O cells” value in experiment [8] was 0.21 µg/mL and 2.1 nM. The binding result in [9] is “no binding”.

B5: hX3.12.5×v9 ROR2×CD3 bispecific antibody (heterodimeric aglycosylated scFv-Fc) (bispecific antibody)
chain 1: B4 chain 1 with V137I, F154V, A199S, S202T
chain 2: B3 chain 2
notes: ROR2 scFv on the knob Fc, v9 anti-CD3 scFv on the hole Fc, both N297A; also called hX3.12.5×V9 bi-mAb; hX3.12.5×CD3 bi-mAb
With B5, the “specific lysis of 786-O cells” value in [8] is 0.15 µg/mL and 1.5 nM. In addition, the binding result in [9] is reported as “no binding”.
